# Source: patent US10617757B2, “Methods for treating multiple myeloma” (The Regents of the University of California, priority 2014, dated 2020)
# Tested on: licensed KIR3DL1+ NK cells
# Experiment: NK cell degranulation (CD107α staining, flow cytometry) stimulated by patient-derived myeloma target cells
# Type: cell-based, human
# Details: presence vs absence of SAR650984; myeloma target cells expressing HLA-Bw4-I80 ligand; FIG. 8
# Description: The functional capacity of a patient's NK cells stimulated by pre-treatment patient-derived myeloma target cells was assessed in response to SAR650984, using flow cytometry (FIG. 8).
substance,measurement,value
SAR650984: a humanized anti-CD38 antibody; comprises VH and VL CDR sequences set forth in SEQ ID NOs:1-6,Degranulation as measured by CD107α staining (surrogate marker for cytotoxicity),greatly enhanced degranulation
